The assay concerns the target T1, Notch1(EGF1-36) (amino acids 20-1426) (human, UniProt P46531 20-1426, biotin, chemically at the N-terminus (EZ-Link Sulfo-NHS-Biotin)).
T1 construct: NOTCH1, human, EGF1-36, amino acids 20-1426; also called NOTCH1 ECD; source: Tni insect cells (baculovirus), purified (nickel chromatography with 1 mM calcium, SEC), chemically biotinylated
The experiment in a line: SPR; ~300 RU biotinylated NOTCH1(EGF1-36) on a streptavidin chip; DLL4(N-5) or DLK1 ECD as analyte; HBS-P20-BSA with 1 mM CaCl2; reference: ZNRF3 ECD. The conditions noted are these: both partners purified.

The source of these data is publication PMC12216052 (Nature Communications, 2025).

B1: Human DLL4 (N-EGF5, amino acids 27-400) (domain or fragment, UniProt Q9NR61 27-400, looked up)
chain: SGVFQLQLQEFINERGVLASGRPCEPGCRTFFRVCLKHFQAVVSPGPCTFGTVSTPVLGTNSFAVRDDSSGGGRNPLQLPFNFTWPGTFSLIIEAWHAPGDDLRPEALPPDALISKIAIQGSLAVGQNWLLDEQTSTLTRLRYSYRVICSDNYYGDNCSRLCKKRNDHFGHYVCQPDGNLSCLPGWTGEYCQQPICLSGCHEQNGYCSKPAECLCRPGWQGRLCNECIPHNGCRHGTCSTPWQCTCDEGWGGLFCDQDLNYCTHHSPCKNGATCSNSGQRSYTCTCRPGYTGVDCELELSECDSNPCRNGGSCKDQEDGYHCLCPPGYYGLHCEHSTLSCADSPCFNGGSCRERNQGANYACECPPNFTGSNCE
notes: Delta-like 4 (DLL4), human, N-EGF5, amino acids 27-400; also called DLL4(N-5); source: Tni insect cells (baculovirus), purified (nickel chromatography, SEC)
As for B1, the binding result is “binds”.
